Measured values published in patent US20210388087A1 (Chugai, published 2021).
Where a chain is given by its changes, count along the chain named. Names and notes keep the numbering of the source. One block for each binder: values may come before it.

Biological target: T1, Human CD137 ECD (human)
T1 construct: also called 4-1BB
Assay: single mutant vs template dBBDu183H

T1 sequence (chain, as listed by the source limits assumed): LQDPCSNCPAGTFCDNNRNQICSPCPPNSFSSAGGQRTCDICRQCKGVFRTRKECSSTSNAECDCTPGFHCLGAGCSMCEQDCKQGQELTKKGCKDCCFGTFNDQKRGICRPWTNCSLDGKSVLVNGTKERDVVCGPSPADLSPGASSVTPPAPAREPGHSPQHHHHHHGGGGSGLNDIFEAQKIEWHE

B1: H183/L072 VH G52cD (antibody, name in Kabat numbering, V domains shown)
VH: QVQLVESGGGLVQPGRSLRLSCAASGFTFSNAWMHWVRQAPGKGLEWVAQIKDKDNAYAAYYAPSVKGRFTISRDDSKNSIYLQMNSLKTEDTAVYYCHYVHYASASTVLPAFGVDAWGQGTTVTVSS
VL: DIVMTQSPLSLPVTPGEPASISCQASQELVHMNRNTYLHWYQQKPGQAPRLLIYKVSNRFPGVPDRFSGSGSGTDFTLKISRVEAEDVGVYYCAQGTSVPFTFGQGTKLEIK
fold change of affinity: 0.6 fold

B2: H183/L072 VH G52cT (antibody, name in Kabat numbering, V domains shown)
VH: B1 VH with D55T
VL: B1 VL
fold change of affinity: 1 fold

B4: H183/L072 VH G65A (antibody, name in Kabat numbering, V domains shown)
VH: B1 VH with D55G, G68A
VL: B1 VL
fold change of affinity: 1.2 fold

B5: H183/L072 VH G52cW (antibody, name in Kabat numbering, V domains shown)
VH: B1 VH with D55W
VL: B1 VL
fold change of affinity: 2 fold

B8: H183/L072 VH H96P (antibody, name in Kabat numbering, V domains shown)
VH: B1 VH with D55G, H102P
VL: B1 VL
fold change of affinity: 0 fold

B9: H183/L072 VH G100hL (antibody, name in Kabat numbering, V domains shown)
VH: B1 VH with D55G, G114L
VL: B1 VL
fold change of affinity: 0 fold

B11: H183/L072 VH I51A (antibody, name in Kabat numbering, V domains shown)
VH: B1 VH with I51A, D55G
VL: B1 VL
fold change of affinity: 0.1 fold

B12: H183/L072 VH G52cP (antibody, name in Kabat numbering, V domains shown)
VH: B1 VH with D55P
VL: B1 VL
fold change of affinity: 0.4 fold

B14: H183/L072 VH H96I (antibody, name in Kabat numbering, V domains shown)
VH: B1 VH with D55G, H102I
VL: B1 VL
fold change of affinity: 0.5 fold

B15: H183/L072 VH G52cV (antibody, name in Kabat numbering, V domains shown)
VH: B1 VH with D55V
VL: B1 VL
fold change of affinity: 0.7 fold

B17: H183/L072 VH G52cR (antibody, name in Kabat numbering, V domains shown)
VH: B1 VH with D55R
VL: B1 VL
fold change of affinity: 0.2 fold

B20: H183/L072 VH H93P (antibody, name in Kabat numbering, V domains shown)
VH: B1 VH with D55G, H99P
VL: B1 VL
fold change of affinity: 0 fold

B21: H183/L072 VH H93M (antibody, name in Kabat numbering, V domains shown)
VH: B1 VH with D55G, H99M
VL: B1 VL
fold change of affinity: 0 fold

B22: H183/L072 VH G52cQ (antibody, name in Kabat numbering, V domains shown)
VH: B1 VH with D55Q
VL: B1 VL
fold change of affinity: 0.7 fold

B24: H183/L072 VH G52cH (antibody, name in Kabat numbering, V domains shown)
VH: B1 VH with D55H
VL: B1 VL
fold change of affinity: 1.3 fold

B25: H183/L072 VH I51L (antibody, name in Kabat numbering, V domains shown)
VH: B1 VH with I51L, D55G
VL: B1 VL
fold change of affinity: 0.1 fold

B26: H183/L072 VH G65L (antibody, name in Kabat numbering, V domains shown)
VH: B1 VH with D55G, G68L
VL: B1 VL
fold change of affinity: 1.3 fold

B28: H183/L072 VH H35T (antibody, name in Kabat numbering, V domains shown)
VH: B1 VH with H35T, D55G
VL: B1 VL
fold change of affinity: 0.5 fold

B29: H183/L072 VH H35V (antibody, name in Kabat numbering, V domains shown)
VH: B1 VH with H35V, D55G
VL: B1 VL
fold change of affinity: 0.5 fold

B30: H183/L072 VH G52cF (antibody, name in Kabat numbering, V domains shown)
VH: B1 VH with D55F
VL: B1 VL
fold change of affinity: 1.7 fold

B31: H183/L072 VH H93A (antibody, name in Kabat numbering, V domains shown)
VH: B1 VH with D55G, H99A
VL: B1 VL
fold change of affinity: 0 fold

B33: H183/L072 VH H35N (antibody, name in Kabat numbering, V domains shown)
VH: B1 VH with H35N, D55G
VL: B1 VL
fold change of affinity: 0.4 fold

B34: H183/L072 VH G100hI (antibody, name in Kabat numbering, V domains shown)
VH: B1 VH with D55G, G114I
VL: B1 VL
fold change of affinity: 0 fold

B35: H183/L072 VH G65I (antibody, name in Kabat numbering, V domains shown)
VH: B1 VH with D55G, G68I
VL: B1 VL
fold change of affinity: 1.3 fold

B36: H183/L072 VH G52cN (antibody, name in Kabat numbering, V domains shown)
VH: B1 VH with D55N
VL: B1 VL
fold change of affinity: 0.9 fold

B37: H183/L072 VH H96M (antibody, name in Kabat numbering, V domains shown)
VH: B1 VH with D55G, H102M
VL: B1 VL
fold change of affinity: 1.4 fold

B38: H183/L072 VH G52cL (antibody, name in Kabat numbering, V domains shown)
VH: B1 VH with D55L
VL: B1 VL
fold change of affinity: 0.8 fold

B39: H183/L072 VH G65M (antibody, name in Kabat numbering, V domains shown)
VH: B1 VH with D55G, G68M
VL: B1 VL
fold change of affinity: 1.2 fold

B40: H183/L072 VH G65P (antibody, name in Kabat numbering, V domains shown)
VH: B1 VH with D55G, G68P
VL: B1 VL
fold change of affinity: 1.3 fold

B41: H183/L072 VH H35F (antibody, name in Kabat numbering, V domains shown)
VH: B1 VH with H35F, D55G
VL: B1 VL
fold change of affinity: 4.3 fold

B42: H183/L072 VH G52cY (antibody, name in Kabat numbering, V domains shown)
VH: B1 VH with D55Y
VL: B1 VL
fold change of affinity: 2 fold

B43: H183/L072 VH H93L (antibody, name in Kabat numbering, V domains shown)
VH: B1 VH with D55G, H99L
VL: B1 VL
fold change of affinity: 0 fold

B47: H183/L072 VH I51M (antibody, name in Kabat numbering, V domains shown)
VH: B1 VH with I51M, D55G
VL: B1 VL
fold change of affinity: 0.2 fold

Next, values leading:

fold change of affinity: 0 fold
B3: H183/L072 VH H93I (antibody, name in Kabat numbering, V domains shown)
VH: B1 VH with D55G, H99I
VL: B1 VL

fold change of affinity: 0.1 fold
B6: H183/L072 VH I51G (antibody, name in Kabat numbering, V domains shown)
VH: B1 VH with I51G, D55G
VL: B1 VL

fold change of affinity: 0.1 fold
B7: H183/L072 VH I51K (antibody, name in Kabat numbering, V domains shown)
VH: B1 VH with I51K, D55G
VL: B1 VL

fold change of affinity: 0.8 fold
B10: H183/L072 VH G52cE (antibody, name in Kabat numbering, V domains shown)
VH: B1 VH with D55E
VL: B1 VL

fold change of affinity: 0 fold
B13: H183/L072 VH G100hM (antibody, name in Kabat numbering, V domains shown)
VH: B1 VH with D55G, G114M
VL: B1 VL

fold change of affinity: 1.3 fold
B16: H183/L072 VH G52cS (antibody, name in Kabat numbering, V domains shown)
VH: B1 VH with D55S
VL: B1 VL

fold change of affinity: 0.2 fold
B18: H183/L072 VH I51N (antibody, name in Kabat numbering, V domains shown)
VH: B1 VH with I51N, D55G
VL: B1 VL

fold change of affinity: 0.8 fold
B19: H183/L072 VH H96L (antibody, name in Kabat numbering, V domains shown)
VH: B1 VH with D55G, H102L
VL: B1 VL

fold change of affinity: 0.2 fold
B23: H183/L072 VH G52cK (antibody, name in Kabat numbering, V domains shown)
VH: B1 VH with D55K
VL: B1 VL

fold change of affinity: 0 fold
B27: H183/L072 VH G100hA (antibody, name in Kabat numbering, V domains shown)
VH: B1 VH with D55G, G114A
VL: B1 VL

fold change of affinity: 3.9 fold
B32: H183/L072 VH H35Y (antibody, name in Kabat numbering, V domains shown)
VH: B1 VH with H35Y, D55G
VL: B1 VL

fold change of affinity: 0.6 fold
B44: H183/L072 VH G52cM (antibody, name in Kabat numbering, V domains shown)
VH: B1 VH with D55M
VL: B1 VL

fold change of affinity: 0 fold
B45: H183/L072 VH H96A (antibody, name in Kabat numbering, V domains shown)
VH: B1 VH with D55G, H102A
VL: B1 VL

fold change of affinity: 0.7 fold
B46: H183/L072 VH G52cI (antibody, name in Kabat numbering, V domains shown)
VH: B1 VH with D55I
VL: B1 VL
